Reference: patent US7871610B2, “Antibodies to Tie1 ectodomain” (Dyax Corp., priority 2003, dated 2011)

How the values were obtained:
[1] = tested on: HUVEC; test: Tube formation assay with HUVEC in collagen gel; assay type: cell-based, human; details: collagen I gel; E3 active even at 10 ng/ml (tested 1 ng/ml to 10 μg/ml); E3b-IgG1 tested 1 pg/ml to 10 ng/ml
Experimental: Human Umbilical vein endothelial cells (HUVEC) were obtained by treating fresh human umbilical cord veins with Trypsin-EDTA (1×) (Gibco/Invitrogen) for 20-25 minutes at 37° C. The cells were cultured in a T-25 flask coated with attachment factor (AF), (Cascade Biologics) in RPMI 1640 medium supplemented with 10% FCS, 0.4% BBE, 1% 1-glutamin, 1% penicillin/streptomycin. Primary cultures were detached with warm Trypsin-EDTA and used when confluent at the second or third passage. The cells were maintained in a proliferative state by culturing them in a split ratio 1:2 at an approximate density of the monolayer of about 60-80%. […]
After 2 passages HUVECs were seeded in their culture medium (40.10^3/50 μl/well of a 96-well plate) on a collagen gel (50 μl of collagen I 1.5 mg/ml) prepared by mixing 7.5 volumes of 2 mg/ml collagen (Collagen R; Serva, Heidelberg, Germany), 1 volume of 10×MEM, 1.5 volume of NaHCO3 (15.6 mg/ml) and ˜1 volume of NaOH to adjust the pH to 7.4. […] The total length of the tube network on the culture surface was quantified at ×40 magnification by the METAVUE™ Software (Universal Imaging Corporation). Results from triplicate wells were expressed as mean vessel area per field ±SEM (relative units). […]
Germlined E3 and its parental antibody were evaluated in the tube formation assay in a collagen type-I matrix. […]

[2] = tested on: bFGF-induced angiogenesis; test: […] plug assay, bFGF-induced angiogenesis in NMRI nu/nu mice; assay type: in vivo, mouse
Experimental: The germlined variant of the E3 IgG antibody was evaluated in an in vivo assay for angiogenesis induced by bFGF in […]™ plugs. Growth factor reduced […]™ (BD Biosciences, catalog # 354230) was supplemented with 80 ng/ml of bFGF (R&D Systems, catalog #234-FSE). The A2-SV or an IgG4 E3 antibody (10 μg/ml) or PBS was injected subcutaneously into the abdominal area of NMRI nu/nu mice (150 μl of Matrigel/plug).
In the first assay, two mice were injected with […]™ supplemented with bFGF and soluble VEGFR-1 (10 μg/ml) as a positive control for an angiogenic inhibitor. At day 7 post-implantation mice were anesthetized and perfused through heart with 4% paraformaldehyde (PFA) in phosphate buffered saline (PBS). […]™ plugs and a piece of liver were removed and embedded in paraffin. Sections were cut and stained with hematoxylin and eosin (H&E).
In a second assay, mice were treated as described above, and then anesthetized eight days post-implantation and injected with fluorescein-conjugated tomato (lycopersicon esculentum) lectin (100 μg in 200 μl of PBS; Vector, catalog #FL-1171) into the tail vein. After five min circulation the animals were perfused through the heart with 10 ml of PBS followed by 10 ml of 4% PFA in PBS. […]™ plugs and pieces of kidney and liver were removed and frozen in OCT (Tissue-Tek). Nuclei were visualized on sections by using […]® mounting medium containing DAPI (Vector) and analyzed under fluorescence microscopy.

B1: E3: human anti-Tie1 antibody from Fab phage library; HC SEQ ID NO:114, LC SEQ ID NO:116 (antibody, V domains shown)
VH: EVQLLESGGGLVQPGGSLRLSCAASGFTFSMYGMVWVRQAPGKGLEWVSVISPSGGNTGYADSVKGRFTISRDNSKNTLYLQVNSLRAEDTAVYYCARAPRGYSYGYYYWGQGTLVTVSSASTKGPSVFPLAPSSKSTSGG
VL: DIQMTQSPLSLSASVGDRVTITCRASQGIGHYLAWYQQKPGKVPKLLIYTASTLQSGVPSRFSGSGSGTDFTLTINSLQPEDVATYYCQQFNSYPHTFGQGTRLDIK
modifications: Synthetically generated peptide
tube formation by HUVECs [1]: potent inhibitor of tube formation
bFGF-induced angiogenesis in vivo ([2]; conclusion from the two experiments): can inhibit bFGF-induced angiogenesis in vivo
vessel-like structures in MATRIGEL plugs (H&E staining) ([2]; first assay, day 7, bFGF 80 ng/ml, antibody 10 μg/ml in plug, E3 = germlined variant, IgG4): neither modification of the matrix nor organization of the cells
fluorescein-lectin staining of MATRIGEL plugs ([2]; second assay, eight days post-implantation, antibody 10 μg/ml in plug): no staining could be detected
